Measured values from article PMC6698736.

Key:
[1] = target: KacA, wild type, purified alone (Klebsiella pneumoniae); assay: SEC-MALS
[2] = target: KacA (coexpressed in KacAT);KacT (Klebsiella pneumoniae;Klebsiella …, UniProt A0A0H3GLZ1;A0A0H3GMP0 1-88;1-177, |); assay: X-ray crystallography

Which stoichiometry N [1] does the source give for “KacA, wild type, purified alone (natural protein)” here?
Its stoichiometry N is 2.

Which results are given for KacT^Y145F (enzyme)?
N, peak α (KacT per KacA (8:8)) [1]: 1; N, peak β (KacT per KacA (2:4)) [1]: 0.5

B1: 27-bp kacAT operator duplex (dsDNA)
DNA 1: AAATGTACGGTTATTAACCGTACATGA
DNA 2: TCATGTACGGTTAATAACCGTACATTT
Does B1 bind [2]?
Result: binds
